# Results from PMC4345318, “Dynamic association of PfEMP1 and KAHRP in knobs mediates cytoadherence during Plasmodium invasion” (Scientific Reports, 2015).
# T1: VARC (cytoplasmic acidic terminal sequence domain of P. falciparum erythrocyte membrane protein-1, PfEMP1) (Plasmodium falciparum, UniProt Q8IAK2 2467-2757)
# T1 construct: also called ATS; cytoplasmic domain of PfEMP1; source: E. coli BL21 (DE3) CodonPlus, purified (Ni-NTA, gel permeation chromatography on Superdex 75)
# T1 sequence: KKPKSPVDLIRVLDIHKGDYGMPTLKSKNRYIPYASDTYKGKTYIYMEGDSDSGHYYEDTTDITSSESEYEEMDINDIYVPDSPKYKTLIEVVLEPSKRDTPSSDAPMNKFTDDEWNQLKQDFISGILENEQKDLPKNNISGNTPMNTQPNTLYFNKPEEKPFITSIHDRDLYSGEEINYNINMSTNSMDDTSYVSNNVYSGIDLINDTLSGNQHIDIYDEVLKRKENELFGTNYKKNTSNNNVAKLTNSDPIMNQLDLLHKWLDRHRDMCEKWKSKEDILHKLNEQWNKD
# B1: K2A1 (first of the two tandem repeats of the K2A region of knob associated histidine rich protein, KAHRP) (domain or fragment)
# chain: KHHSSKKHEGNDGEGEKKKKSKKHKDHDGEKKKSKKHKDNEDAESVKSKK
# notes: also called truncated K2A; source: E. coli BL21 (DE3) CodonPlus, purified (Ni-NTA, gel permeation chromatography on Superdex 75); not shown: His6, C-terminal, kept
# Experiments:
# [1] = biological target: VARC (acidic terminal segment, cytoplasmic domain fragment of PfEMP1, comprising VARC A and VARC B); test: ITC (GE MicroCal ITC200); details: pH 6.9, 298 K, 0.013 M (no added salt), 10 mM sodium phosphate
# [2] = biological target: T1, VARC (cytoplasmic acidic terminal …); test: ITC; 0.7 mM K2A1 in the syringe, 0.07 mM VARC in the cell; 298 K; 10 mM sodium phosphate pH 6.9, 5 mM DTT, no additional salt; 40 injections of 1 μL; fitted to a sequential four site model, and to a simple hetero-association model (A + B <-> AB) in SEDPHAT for an apparent global Kd; details: both partners purified
# [3] = biological target: T1, VARC (cytoplasmic acidic terminal …); test: NMR titration; 2D [15N,1H] HSQC of 10 μM 15N-labelled K2A1 with unlabelled VARC added at 1:1, 1:2.5, 1:5, 1:7.5 and 1:10 molar ratios; 278 K; 10 mM sodium phosphate pH 6.2, 5 mM DTT, no additional salt (ionic strength 0.013 M); Kd by fit of amide chemical shift perturbations; the 1:5 complex also measured at 20, 50, 100 and 150 mM NaCl; details: both partners purified
Molecule,"Kd (first value, four-site sequential model) [1]","Kd (fourth value, four-site sequential model) [1]","Kd (second value, four-site sequential model) [1]","Kd (third value, four-site sequential model) [1]",Kd [2],Kd of site 1 (four-site binding model) [2],Kd of site 2 (four-site binding model) [2],Kd of site 3 (four-site binding model) [2],Kd of site 4 (four-site binding model) [2],Kd [3]
"K2A1 (first tandem repeat of the K2A lysine-rich region of knob-associated histidine-rich protein, KAHRP)",9.8 µM,9.6 µM,10.3 µM,10.1 µM,–,–,–,–,–,–
B1,–,–,–,–,32.1 µM,9.8 µM,10.3 µM,10.1 µM,9.6 µM,7 to 15 µM
